T1: compound 1 (not fully specified)
T1 chain: KLTCLASYCWLF

T2: compound 5
T2 chain: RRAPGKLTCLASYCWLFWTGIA

B1: mouse FIXa (protein)
chain: YNSGKLEEFVRGNLERECIEERCSFEEAREVFENTEKTTEFWKQYVDGDQCESNPCLNGGICKDDISSYECWCQVGFEGRNCELDATCNIKNGRCKQFCKNSPDNKVICSCTEGYQLAEDQKSCEPTVPFPCGRASISYSSKKITRAETVFSNMDYENSTEAVFIQDDITDGAILNNVTESSESLNDFTRVVGGENAKPGQIPWQVILNGEIEAFCGGAIINEKWIVTAAHCLKPGDKIEVVAGEYNIDKKEDTEQRRNVIRTIPHHQYNATINKYSHDIALLELDKPLILNSYVTPICVANREYTNIFLKFGSGYVSGWGKVFNKGRQASILQYLRVPLVDRATCLRSTTFTIYNNMFCAGYREGGKDSCEGDSGGPHVTEVEGTSFLTGIISWGEECAMKGKYGIYTKVSRYVNWIKEKTKLT
B2: human Factor VIIa (protein)
chain: ANAFLEELRPGSLERECKEEQCSFEEAREIFKDAERTKLFWISYSDGDQCASSPCQNGGSCKDQLQSYICFCLPAFEGRNCETHKDDQLICVNENGGCEQYCSDHTGTKRSCRCHEGYSLLADGVSCTPTVEYPCGKIPILEKRNASKPQGRIVGGKVCPKGECPWQVLLLVNGAQLCGGTLINTIWVVSAAHCFDKIKNWRNLIAVLGEHDLSEHDGDEQSRRVAQVIIPSTYVPGTTNHDIALLRLHQPVVLTDHVVPLCLPERTFSERTLAFVRFSLVSGWGQLLDRGATALELMVLNVPRLMTQDCLQQSRKVGDSPNITEYMFCAGYSDGSKDSCKGDSGGPHATHYRGTWYLTGIVSWGQGCATVGHFGVYTRVSQYIEWLQKLMRSEPRPGVLLRAPFP

Columns and labels:
compound 1 = target: T1, compound 1
compound 5 = target: T2, compound 5

| Protein | Vmax, FXa generation assay (compound 1) | Δ kM of FVIIa, FXa generation assay (compound 5) | Δ kcat of FVIIa, FXa generation assay (compound 5) [fold] |
| --- | --- | --- | --- |
| B1 | the Vmax is greatly reduced with mFIXa compared to hFIXa |  |  |
| B2 |  | 0.3 | 2420 |
